Values belong to the molecule of their own block, whether it stands above or below them.
Key:
[1] = target: PSTPIP1, endogenous, PAPA syndrome patient (human (endogenous in CD14+ cells)) (UniProt O43586); assay: non-reducing SDS-PAGE with Western blot; lysates of CD14+ cells from controls and a PAPA patient, non-reducing conditions, probed with anti-PSTPIP1
[2] = target: the molecule itself; assay: as above
[3] = target: the molecule itself; assay: non-reducing SDS-PAGE; recombinant PSTPIP1 from E. coli run in the absence of added reducing agent, Coomassie stain

stoichiometry N [1]: 2
Molecule: PSTPIP1, endogenous, PAPA syndrome patient (from UniProt O43586 1-416) (natural protein)

B1: PSTPIP1 (proline serine threonine phosphatase-interacting protein 1), endogenous, control individuals (natural protein, human (endogenous in CD14+ cells), UniProt O43586 1-416, looked up)
chain: MMPQLQFKDAFWCRDFTAHTGYEVLLQRLLDGRKMCKDMEELLRQRAQAEERYGKELVQIARKAGGQTEINSLRASFDSLKQQMENVGSSHIQLALTLREELRSLEEFRERQKEQRKKYEAVMDRVQKSKLSLYKKAMESKKTYEQKCRDADDAEQAFERISANGHQKQVEKSQNKARQCKDSATEAERVYRQSIAQLEKVRAEWEQEHRTTCEAFQLQEFDRLTILRNALWVHSNQLSMQCVKDDELYEEVRLTLEGCSIDADIDSFIQAKSTGTEPPAPVPYQNYYDREVTPLTSSPGIQPSCGMIKRFSGLLHGSPKTTSLAASAASTETLTPTPERNEGVYTAIAVQEIQGNPASPAQEYRALYDYTAQNPDELDLSAGDILEVILEGEDGWWTVERNGQRGFVPGSYLEKL
notes: PSTPIP1, human, endogenous in CD14+ cells of control individuals (C1, C2); Major species runs at 95-96 kDa (dimer) on a non-reducing gel; minor monomer at 48 kDa and faint multimers; also called CD2BP1; source: endogenous, lysates of human CD14+ cells enriched from PBMC of control individuals
stoichiometry N [2]: 2

B2: Recombinant human PSTPIP1 protein expressed in E. coli (natural protein, UniProt O43586 1-416, looked up)
chain: B1 chain
notes: PSTPIP1, human, recombinant; monomer runs at 48 kDa; the purification is not described, only that several steps of the recovery need DTT; also called recombinant PSTPIP1; source: E. coli (pHIS8 plasmid), recovered recombinant protein
stoichiometry N [3]: 2

Reference: publication PMC2702820, “Pyrin Modulates the Intracellular Distribution of PSTPIP1” (PLoS ONE, 2009)
